Assay results published in PMC7305985.
Each block holds one substance with its values, some of them ahead of it.

Tests used:
[1] = target: Mononucleosomes, Recombinant Human Biotinylated (human) (UniProt P04908); assay: pull-down
[2] = target: Histone H4K5ac peptide, biotinylated (1–23) (UniProt P62805); assay: pull-down
FLAG-tagged KAP1 ΔRB = assay: co-IP
Chain of FLAG-tagged KAP1 ΔRB (Q13263 2-835, stated change not applied): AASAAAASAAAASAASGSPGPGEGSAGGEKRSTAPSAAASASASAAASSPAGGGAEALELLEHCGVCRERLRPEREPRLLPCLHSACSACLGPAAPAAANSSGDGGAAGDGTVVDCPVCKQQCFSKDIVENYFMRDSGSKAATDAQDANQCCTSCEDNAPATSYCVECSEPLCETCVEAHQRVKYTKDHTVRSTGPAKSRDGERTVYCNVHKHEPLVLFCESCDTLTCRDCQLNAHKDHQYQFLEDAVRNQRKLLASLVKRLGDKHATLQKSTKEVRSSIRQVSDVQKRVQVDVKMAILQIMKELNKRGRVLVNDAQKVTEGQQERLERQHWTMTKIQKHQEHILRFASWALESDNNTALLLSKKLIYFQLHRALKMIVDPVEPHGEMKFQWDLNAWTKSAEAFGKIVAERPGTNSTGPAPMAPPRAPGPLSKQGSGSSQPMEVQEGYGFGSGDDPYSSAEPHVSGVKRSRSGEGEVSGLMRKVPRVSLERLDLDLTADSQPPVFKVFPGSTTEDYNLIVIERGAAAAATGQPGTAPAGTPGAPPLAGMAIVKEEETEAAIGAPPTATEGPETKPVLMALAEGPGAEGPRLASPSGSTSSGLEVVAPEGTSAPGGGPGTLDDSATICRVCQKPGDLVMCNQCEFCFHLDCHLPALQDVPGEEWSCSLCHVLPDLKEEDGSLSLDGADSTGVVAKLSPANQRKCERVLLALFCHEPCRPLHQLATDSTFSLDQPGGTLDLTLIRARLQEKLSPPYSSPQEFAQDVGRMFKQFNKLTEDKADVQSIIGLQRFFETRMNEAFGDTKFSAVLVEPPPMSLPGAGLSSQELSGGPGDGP

Chain of endogenous SMAD2 (Q15796 whole entry): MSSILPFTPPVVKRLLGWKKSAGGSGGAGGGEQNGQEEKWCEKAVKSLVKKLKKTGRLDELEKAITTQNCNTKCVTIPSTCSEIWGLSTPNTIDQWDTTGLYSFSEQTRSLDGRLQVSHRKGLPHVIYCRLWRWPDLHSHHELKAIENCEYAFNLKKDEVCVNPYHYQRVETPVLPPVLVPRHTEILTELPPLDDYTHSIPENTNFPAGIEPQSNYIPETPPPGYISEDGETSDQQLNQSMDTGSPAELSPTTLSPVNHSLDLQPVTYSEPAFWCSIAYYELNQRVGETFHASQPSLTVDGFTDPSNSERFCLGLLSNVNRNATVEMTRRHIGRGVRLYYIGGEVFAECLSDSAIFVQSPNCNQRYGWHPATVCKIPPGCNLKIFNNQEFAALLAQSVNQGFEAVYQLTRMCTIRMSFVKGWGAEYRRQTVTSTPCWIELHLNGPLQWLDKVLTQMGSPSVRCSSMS

percent reduction in binding relative to WT KAP1 [1]: 80%
Substance: GST-tagged KAP1 PHD-BD E662/663A (from UniProt Q13263 614-835) (domain or fragment)

percent lower binding relative to unmodified H4 [2]: 30%
Substance: GST-tagged KAP1 PHD-BD (residues 614–835) (from UniProt Q13263 614-835) (domain or fragment)

percent decrease in binding relative to WT KAP1 (FLAG-tagged KAP1 ΔRB): 80%
Substance: endogenous SMAD2 (from UniProt Q15796 1-467) (natural protein)
